The record followed here is patent US20100021473A1 (DOMANTIS, published 2010).

Assay [1] addresses T1, CEA immobilised on Biacore CM5 chip (UniProt P06731 35-685, limits assumed).
T1 construct: also called DOM13
T1 sequence (looked up): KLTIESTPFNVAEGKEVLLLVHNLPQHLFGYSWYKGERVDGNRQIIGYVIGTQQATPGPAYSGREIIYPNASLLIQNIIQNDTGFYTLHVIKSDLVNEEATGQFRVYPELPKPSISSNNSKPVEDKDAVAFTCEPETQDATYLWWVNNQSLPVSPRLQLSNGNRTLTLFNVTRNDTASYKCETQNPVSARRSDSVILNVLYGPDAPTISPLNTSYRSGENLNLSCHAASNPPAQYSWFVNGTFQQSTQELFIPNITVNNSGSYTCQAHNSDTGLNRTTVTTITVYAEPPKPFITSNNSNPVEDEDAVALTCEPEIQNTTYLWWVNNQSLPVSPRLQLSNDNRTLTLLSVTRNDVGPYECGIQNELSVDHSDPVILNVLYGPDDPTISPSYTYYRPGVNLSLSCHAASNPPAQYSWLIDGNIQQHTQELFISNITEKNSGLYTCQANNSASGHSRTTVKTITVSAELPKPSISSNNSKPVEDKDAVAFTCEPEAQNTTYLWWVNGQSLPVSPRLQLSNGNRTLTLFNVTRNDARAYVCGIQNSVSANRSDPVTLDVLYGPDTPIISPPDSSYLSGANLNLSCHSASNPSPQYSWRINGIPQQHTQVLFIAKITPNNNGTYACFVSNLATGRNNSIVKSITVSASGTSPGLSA
As to the kind of experiment: Biacore, CEA immobilised. As to the method:
(§1) Anti-CD38, anti-CEA and anti-CD56 dAbs that were identified as FACS positive clones were in addition analysed by Biacore using the following procedure. The CM5 chip surface was activated by flushing 1:1 EDC/NHS (0.4M1-ethyl-3-(3-dimenthylaminopropyl)-carbodiimide in water; 0.1 M N-hydroxysuccinimide in water) at a flow rate of 5 uL/min for 10 minute contact time. CD38 was immobilised at 500 nM in Acetate buffer pH4 at 5 uL/min this was repeated until the RUs reached between 500 and 1000 (low density). CEA and CD56 were coupled in acetate buffer pH 4.5. Any excess reactive groups were deactivated by running 1M ethanolamine-HCl over the CM5 chip (again 5 uL/min for 7 mins). The affinities of the anti-CD38, anti-CEA and anti-CD56 dAbs were measured on the biacore as described above.
Background: SPR reads the build-up and loss of mass on a sensor chip optically.

Assay [2] concerns the target T2, NCA on H647 cells (UniProt P40199 35-320, limits assumed).
T2 construct: whole, on cells; Its identity is an inference
T2 sequence (looked up): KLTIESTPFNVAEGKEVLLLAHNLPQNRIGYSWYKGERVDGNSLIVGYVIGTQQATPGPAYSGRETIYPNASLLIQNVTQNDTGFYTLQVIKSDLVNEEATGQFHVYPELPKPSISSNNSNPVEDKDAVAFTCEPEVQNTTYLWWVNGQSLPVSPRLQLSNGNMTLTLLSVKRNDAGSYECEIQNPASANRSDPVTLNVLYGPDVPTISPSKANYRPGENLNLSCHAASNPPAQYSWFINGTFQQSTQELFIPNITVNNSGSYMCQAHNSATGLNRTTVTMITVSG
The experiment in a line: FACS on H647 cells (CEA-/NCA+). As to the method: (§2) All dAbs were analysed by FACS on antigen positive and negative cell lines using the following method.
(§3) The determination of cell binding by FACS was carried out as follows: cells were centrifuged at 250 g for 5 minutes and the growth medium was removed. The cells were resuspended in FACS incubation buffer at 4° C. at a density of 2×10⁶ cells/ml. The cells were blocked by incubating for 15 minutes at 4° C. in FACS incubation buffer. Fifty microliters of 2× stock of primary antibody (anti-CD38 FITC, anti-CD138 FITC or mIgG1 FITC conjugated isotype control (all BD Biosciences) was added; or dAb was added to cells in FACS incubation buffer and incubated for 30-60 minutes at 4° C. The cells were then washed once in FACS incubation buffer. One hundred microliters of secondary antibody (rabbit anti-Vk) was added to cells in FACS incubation buffer and incubated 30-60 minutes at 4° C. The cells were washed once in FACS incubation buffer. Then 100 ul of 1× tertiary antibody was added to the cells in FACS incubation buffer and incubated for 30-60 mins at 4° C. (for dAbs the tertiary antibody is anti-rabbit FITC (Sigma)). The cells were washed twice in FACS incubation buffer. The cell pellet was resuspend in 200 ul FACS incubation buffer+viable cell marker (BD Viaprobe). The cells were then analyzed by flow cytometry.

The target in assay [3] is CD138 and CD56 co-expressed on cells (CD138+/CD56+ double positive cells) (UniProt P18827). The experiment in a line: cell-based or functional assay.
In assay [4] the target is T3, CD38 and CD138 co-expressed on cells (CD38+/CD138+ double positive cells) (UniProt P28907 1-300; P18827 23-310).
T3 construct: whole, on cells; Two separate membrane proteins on the same cell, not a complex; also called RPMI8226; OPM2
As to the kind of experiment: FACS cell binding titration on OPM2 cells (CD38+/CD138+), arithmetic mean fluorescence. The table prints no unit; the unit is taken from the x axis 'log conc in nm' (nanomolar). Here is the method: as §3
Anti-CD38 and anti-CD138 affinity matured dAbs were paired to create dual specific ligands by cloning an anti-CD38 dAb and an anti-CD138 dAb into a dual expression vector. To determine if the increased affinity of the monomers was reflected in increased binding affinity of the dual specific ligand, a range of the affinity matured anti-CD38 dAbs were paired with the anti-CD138 dAb DOM12-45, a range of affinity matured anti-CD138 dAbs were paired with anti-CD38 dAbs, and a range of affinity matured anti-CD38 dAbs and affinity matured anti-CD138 dAbs were paired. All dual specific ligands were expressed in E. coli and purified using protein L agarose followed by Resource S cation exchange chromatography when required. The binding affinity of the dual specific ligands was assessed by FACS as described previously. In this study, a range of concentrations was used to allow determination of EC50.

Assay [5] addresses T4, CD138 on cells (UniProt P18827 23-310).
T4 construct: whole, on cells; Endogenous CD138 on cell lines used in FACS; also called DOM12; syndecan-1
T4 sequence (looked up): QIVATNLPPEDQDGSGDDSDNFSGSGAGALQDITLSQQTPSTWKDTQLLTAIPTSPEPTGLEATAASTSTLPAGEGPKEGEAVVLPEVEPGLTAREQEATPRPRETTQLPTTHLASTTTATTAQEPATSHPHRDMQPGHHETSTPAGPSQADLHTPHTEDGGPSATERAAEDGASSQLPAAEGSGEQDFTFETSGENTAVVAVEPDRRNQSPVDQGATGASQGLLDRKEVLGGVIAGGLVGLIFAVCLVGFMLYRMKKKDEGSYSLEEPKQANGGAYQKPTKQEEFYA
The experiment in a line: FACS on HUVEC cells (CD38-/CD138+). As to the method:
as §2, §3

In assay [6] the target is T5, CD38 on cells (UniProt P28907 1-300).
T5 construct: whole, on cells; Endogenous CD38 on cell lines used in FACS or microscopy; also called DOM11; T10
As to the kind of experiment: FACS on RPMI cells (CD38+/138+). As to the method: as §2, §3

For assay [7], the target named is T4, CD138 on cells. The experiment in a line: FACS on RPMI cells (CD38+/138+). As to the method:
as §2, §3

Assay [8] deals with T3, CD38 and CD138 co-expressed on cells …. As to the kind of experiment: cell-based or functional assay.
The target in assay [9] is T4, CD138 on cells. The experiment in a line: FACS dot plot (FSC-H against FL1-H) on H647 cells (CD38-/CD138+), ligand at 50 nM.
The target of assay [10] is T6, CD38 immobilised on Biacore CM5 chip (UniProt P28907 43-300, limits assumed).
T6 construct: also called DOM11
The experiment in a line: SPR (Biacore), CD38 immobilised on CM5 chip. Here is the method:
as §1

The target in assay [11] is T6, CD38 immobilised on Biacore CM5 chip. The experiment in a line: Biacore, CD38 immobilised. Here is the method:
as §1
Affinity maturation libraries were created for the anti-CD38 dAbs DOM11-3 and DOM11-30 by error prone PCR. […] Initial screening was carried out by BIAcore (as described previously) and subsequently by FACS.

B1: DOM13-59 (other)
chain: DIQMTQSPSSLSASVGDRVTITCRASQKIMTHLRWYQQKPGKAPKLLIYGGSHLQSGVPSRFSGSGSGTDFTLTISSLQPEDFATYYCQQTWVSPMTFGQGTKVEIRR
notes: Anti-CEA dAb monomer
In turn, B1 returned a Kd in [1] of 400 to 800 nM. Also, the binding result in assay [2] was “no binding”.

B2: DOM14-23/DOM12-45 anti-CD138/anti-CD56 dual specific ligand (bispecific antibody, part only; not given: linker between dAbs, not shown: small tags and cut ends)
chain, part: DIQMTQSPSSLSASVGDRVTITCRASQDIFPFLNWYQQKPGKAPELLIYRASILHSGVPSRFSGSGSGTDFTLTISSLQPEDFATYYCQQIARSPRTFGQGTKVEIKRDIQMTQSPSSLSASVGDRVTITCRASQDIGDRLRWYQQKPGKAPKLLIYHGSRLESGVPSRFSGSRSGTDFTLTISSLQPEDFATYYCQQQWFRPYTFGQGTKVEIKR
Turning to B2, the % internalized in [3] stood at 43%.

B3: DOM 11-3-23/DOM 12-45-2 (bispecific antibody, V domains shown)
V domain 1: DIQMTQSPSSLSASVGDRVTITCRASQNIDSRLSWYQQKPGKAPKLLIYRASVLQSGVPSRFSGSGSGTDFTLTISSLQPEDFATYYCQQWDMFPLAFGQGTRVEIKR
V domain 2: DIQMTQSPSSLSASVGDRVTITCRASQDIGGRLRWYQQKPGKAPKLLIYHGSRLDSGVPSRFSGSRSGADFTLTISSLQPEDFATYYCQQQWYRPYTFGQGTKVEIKR
As for B3, in assay [4], the EC50 amounted to 11 nM.

B4: DOM11-7 (other)
chain: DIQMTQSPSSLSASVGDRVTITCRASQYINTLLSWYQQKPGKAPKLLIYAQSRLQSGVPSRFSGSGSGTDFTLTISSLQPEDFATYYCQQFAFRPYTFGQGTKVEIKR
notes: Anti-CD38 dAb monomer
For the molecule B4, the binding result in assay [5] was “no binding”; in assay [6] it was “binds”.

B5: DOM13-25 (other)
chain: DIQMTQSPSSLSASVGDRVTITCRASQSIGPWLSWYQQKPGKAPKLLIYQVSRLQSGVPSRFSGSGSGTDFTLTISSLQPEDFATYYCQQNLAPPYTFGQGTKVEIKR
notes: Anti-CEA dAb monomer
On to B5, for which the Kd in assay [1] lay in the range of 100 to 200 nM. In assay [2], the binding result is on record as “no binding”.

B6: DOM12-26 (other)
chain: DIQMTQSPSSLSASVGDRVTITCRASQDIFTKLRWYQQKPGKAPRLLIYAGSRLQSGVPSRFSGSGSGTDFTLTISSLQPEDFATYYCQQVKQKPWTFGQGTKVEIKR
notes: Anti-CD138 dAb monomer
Regarding B6, in assay [7], the binding result is “binds”.

B7: DOM11-30/DOM12-45 anti-CD38/anti-CD138 dual specific ligand (bispecific antibody, part only; not given: linker between dAbs, not shown: small tags and cut ends)
chain, part: DIQITQSPSSLSASVGDRITITCRASQKIENDLAWYQQKPGKAPKLLIYYTSILQSGVPSRFSGSGSGTDFTLTISSLQPEDFATYYCQQRRYVPATFGQGTKVEIKRDIQMTQSPSSLSASVGDRVTITCRASQDIGDRLRWYQQKPGKAPKLLIYHGSRLESGVPSRFSGSRSGTDFTLTISSLQPEDFATYYCQQQWFRPYTFGQGTKVEIKR
In assay [8], B7 showed a % internalized of 8%.

B8: DOM11-3/DOM12-45 anti-CD38/anti-CD138 dual specific ligand (bispecific antibody)
chain: DIQMTQSPSSLSASVGDRVTITCRASQNIDSRLSWYQQKPGKAPKLLIYRTSVLQSGVPSRFSGSGSGTDFTLTISSLQPEDFATYYCQQWDMFPLTFGQGTKVEIKRSSGGGGSGGGGSGGGGSGGGGSGGGGSTDIQMTQSPSSLSASVGDRVTITCRASQDIGDRLRWYQQKPGKAPKLLIYHGSRLESGVPSRFSGSRSGTDFTLTISSLQPEDFATYYCQQQWFRPYTFGQGTKVEIKR
notes: In-line fusion of two dAbs, expressed in E. coli; also called DOM11-3/12-45
For B8, in assay [9], the percent of cells right of the FL1-H gate line was determined as 3%. The molecule also came in with an EC50 in [4] of 44.4 nM.

B9: DOM13-74 (other)
chain: DIQMTQSPSSLSASVGDRVTITCRASQPIKMMLSWYQQKPGKAPKLLIYNNSTLQSGVPSRFSGSGSGTDFTLTISSLQPEDFATYYCQQYRRWPYTFSQGTKVEIKR
notes: Anti-CEA dAb monomer
For B9, in assay [1], the Kd was 100 to 200 nM. The binding result in assay [2] was “no binding”.

B10: DOM11-30 (other)
chain: DIQITQSPSSLSASVGDRITITCRASQKIENDLAWYQQKPGKAPKLLIYYTSILQSGVPSRFSGSGSGTDFTLTISSLQPEDFATYYCQQRRYVPATFGQGTKVEIKR
notes: Anti-CD38 dAb monomer
As to B10, the figures for the Kd in [10] and in [11] were 150 nM and 190 to 230 nM, respectively.

B11: DOM12-17 (other)
chain: DIQMTQSPSSLSASVGDRVTITCRASQSIGNNLLWYQQKPGKAPKLLIYYTSRLQSGVPSRFSGSGSGTDFTLTISSLQPEDFATYYCQQRRTHPHTFGQGTKVEIKR
notes: Anti-CD138 dAb monomer
Take B11: the binding result in assay [7] was “binds”.

For orientation: Kd means the concentration at which binding is half-saturated. A lower Kd goes with higher affinity. For orientation: EC50 means the concentration at which the effect is half-maximal. Read a high EC50 as a less potent agent.
